± gives the uncertainty stated by the source.

This passage reports abundance fitness results from the Human Domainome abundance scans (Beltran et al. 2025).

B1: POU domain, class 2, transcription factor 2, residues 200 to 269; numbered along this chain, P09086 (parent)
chain: LEELEQFARTFKQRRIKLGFTQGDVGLAMGKLYGNDFSQTTISRFEALNLSFKNMCKLKPLLEKWLNDAE

The variants in this series derive from B1. Briefly: abundance fitness (aPCA) (normalised: wild type 0, dead -1); higher = more abundant; growth selection in yeast, the domain comes from the species named. Particulars: Homo sapiens.
Regarding LEELEQFARTFKQRWIKLGFTQGDVGLAMGKLYGNDFSQTTISRFEALNLSFKNMCKLKPLLEKWLNDAE [R15W], the abundance fitness is -0.913 ± 0.086.
On to LEELEQFARTFKQRYIKLGFTQGDVGLAMGKLYGNDFSQTTISRFEALNLSFKNMCKLKPLLEKWLNDAE [R15Y], for which the abundance fitness is -0.243 ± 0.094.
In the case of LEELEQFARTFKQRRVKLGFTQGDVGLAMGKLYGNDFSQTTISRFEALNLSFKNMCKLKPLLEKWLNDAE [I16V], the abundance fitness was -0.039 ± 0.036.
In the case of LEELEQFARTFKQRRLKLGFTQGDVGLAMGKLYGNDFSQTTISRFEALNLSFKNMCKLKPLLEKWLNDAE [I16L], the abundance fitness is -0.042 ± 0.038.
For LEELEQFARTFKQRREKLGFTQGDVGLAMGKLYGNDFSQTTISRFEALNLSFKNMCKLKPLLEKWLNDAE [I16E], the abundance fitness is 0.048 ± 0.044.
On to LEELEQFARTFKQRRMKLGFTQGDVGLAMGKLYGNDFSQTTISRFEALNLSFKNMCKLKPLLEKWLNDAE [I16M], for which the abundance fitness is -0.06 ± 0.065.
To LEELEQFARTFKQRRNKLGFTQGDVGLAMGKLYGNDFSQTTISRFEALNLSFKNMCKLKPLLEKWLNDAE [I16N] belongs -0.003 ± 0.08; to LEELEQFARTFKQRRCKLGFTQGDVGLAMGKLYGNDFSQTTISRFEALNLSFKNMCKLKPLLEKWLNDAE [I16C], -0.149 ± 0.057; to LEELEQFARTFKQRRDKLGFTQGDVGLAMGKLYGNDFSQTTISRFEALNLSFKNMCKLKPLLEKWLNDAE [I16D], -0.133 ± 0.061.
As for LEELEQFARTFKQRRKKLGFTQGDVGLAMGKLYGNDFSQTTISRFEALNLSFKNMCKLKPLLEKWLNDAE [I16K], the abundance fitness was -0.021 ± 0.034.
With LEELEQFARTFKQRRSKLGFTQGDVGLAMGKLYGNDFSQTTISRFEALNLSFKNMCKLKPLLEKWLNDAE [I16S], the abundance fitness is -0.071 ± 0.044.
The result for LEELEQFARTFKQRRHKLGFTQGDVGLAMGKLYGNDFSQTTISRFEALNLSFKNMCKLKPLLEKWLNDAE [I16H] reads -0.16 ± 0.083; that for LEELEQFARTFKQRRTKLGFTQGDVGLAMGKLYGNDFSQTTISRFEALNLSFKNMCKLKPLLEKWLNDAE [I16T], 0.017 ± 0.074.
Turning to LEELEQFARTFKQRRAKLGFTQGDVGLAMGKLYGNDFSQTTISRFEALNLSFKNMCKLKPLLEKWLNDAE [I16A], the abundance fitness was -0.085 ± 0.037.
Consider LEELEQFARTFKQRRYKLGFTQGDVGLAMGKLYGNDFSQTTISRFEALNLSFKNMCKLKPLLEKWLNDAE [I16Y], for which the abundance fitness was -0.194 ± 0.076.
The result for LEELEQFARTFKQRRQKLGFTQGDVGLAMGKLYGNDFSQTTISRFEALNLSFKNMCKLKPLLEKWLNDAE [I16Q] reads -0.013 ± 0.061; that for LEELEQFARTFKQRRFKLGFTQGDVGLAMGKLYGNDFSQTTISRFEALNLSFKNMCKLKPLLEKWLNDAE [I16F], -0.141 ± 0.051; that for LEELEQFARTFKQRRRKLGFTQGDVGLAMGKLYGNDFSQTTISRFEALNLSFKNMCKLKPLLEKWLNDAE [I16R], -0.059 ± 0.027.
For the variant LEELEQFARTFKQRRGKLGFTQGDVGLAMGKLYGNDFSQTTISRFEALNLSFKNMCKLKPLLEKWLNDAE [I16G], the abundance fitness is -0.095 ± 0.032.
On to LEELEQFARTFKQRRPKLGFTQGDVGLAMGKLYGNDFSQTTISRFEALNLSFKNMCKLKPLLEKWLNDAE [I16P], for which the abundance fitness was -0.895 ± 0.12.
For LEELEQFARTFKQRRIKAGFTQGDVGLAMGKLYGNDFSQTTISRFEALNLSFKNMCKLKPLLEKWLNDAE [L18A], the abundance fitness was -0.025 ± 0.051.
With LEELEQFARTFKQRRIQLGFTQGDVGLAMGKLYGNDFSQTTISRFEALNLSFKNMCKLKPLLEKWLNDAE [K17Q], the abundance fitness is -0.096 ± 0.07.
Take LEELEQFARTFKQRRIGLGFTQGDVGLAMGKLYGNDFSQTTISRFEALNLSFKNMCKLKPLLEKWLNDAE [K17G]: the abundance fitness was -0.027 ± 0.035.
For the variant LEELEQFARTFKQRRIILGFTQGDVGLAMGKLYGNDFSQTTISRFEALNLSFKNMCKLKPLLEKWLNDAE [K17I], the abundance fitness was -0.072 ± 0.087.
To LEELEQFARTFKQRRIWLGFTQGDVGLAMGKLYGNDFSQTTISRFEALNLSFKNMCKLKPLLEKWLNDAE [K17W] belongs -0.129 ± 0.052; to LEELEQFARTFKQRRIMLGFTQGDVGLAMGKLYGNDFSQTTISRFEALNLSFKNMCKLKPLLEKWLNDAE [K17M], 0.001 ± 0.07; to LEELEQFARTFKQRRIELGFTQGDVGLAMGKLYGNDFSQTTISRFEALNLSFKNMCKLKPLLEKWLNDAE [K17E], -0.082 ± 0.056.
With LEELEQFARTFKQRRICLGFTQGDVGLAMGKLYGNDFSQTTISRFEALNLSFKNMCKLKPLLEKWLNDAE [K17C], the abundance fitness turned out to be 0.011 ± 0.073.
On to LEELEQFARTFKQRRISLGFTQGDVGLAMGKLYGNDFSQTTISRFEALNLSFKNMCKLKPLLEKWLNDAE [K17S], for which the abundance fitness was -0.009 ± 0.033.
With LEELEQFARTFKQRRIALGFTQGDVGLAMGKLYGNDFSQTTISRFEALNLSFKNMCKLKPLLEKWLNDAE [K17A], the abundance fitness is -0.049 ± 0.039.
Consider LEELEQFARTFKQRRIRLGFTQGDVGLAMGKLYGNDFSQTTISRFEALNLSFKNMCKLKPLLEKWLNDAE [K17R], for which the abundance fitness came to 0.006 ± 0.039.
Turning to LEELEQFARTFKQRRITLGFTQGDVGLAMGKLYGNDFSQTTISRFEALNLSFKNMCKLKPLLEKWLNDAE [K17T], the abundance fitness was -0.07 ± 0.063.
With LEELEQFARTFKQRRIYLGFTQGDVGLAMGKLYGNDFSQTTISRFEALNLSFKNMCKLKPLLEKWLNDAE [K17Y], the abundance fitness is -0.121 ± 0.084.
Turning to LEELEQFARTFKQRRIDLGFTQGDVGLAMGKLYGNDFSQTTISRFEALNLSFKNMCKLKPLLEKWLNDAE [K17D], the abundance fitness was determined as 0.016 ± 0.082.
As to LEELEQFARTFKQRRIVLGFTQGDVGLAMGKLYGNDFSQTTISRFEALNLSFKNMCKLKPLLEKWLNDAE [K17V], the abundance fitness was -0.063 ± 0.04.
For the variant LEELEQFARTFKQRRILLGFTQGDVGLAMGKLYGNDFSQTTISRFEALNLSFKNMCKLKPLLEKWLNDAE [K17L], the abundance fitness was -0.006 ± 0.036.
As for LEELEQFARTFKQRRIHLGFTQGDVGLAMGKLYGNDFSQTTISRFEALNLSFKNMCKLKPLLEKWLNDAE [K17H], the abundance fitness is -0.2 ± 0.086.
With LEELEQFARTFKQRRINLGFTQGDVGLAMGKLYGNDFSQTTISRFEALNLSFKNMCKLKPLLEKWLNDAE [K17N], the abundance fitness was 0.02 ± 0.081.
Consider LEELEQFARTFKQRRIFLGFTQGDVGLAMGKLYGNDFSQTTISRFEALNLSFKNMCKLKPLLEKWLNDAE [K17F], for which the abundance fitness was -0.096 ± 0.092.
